Results: article PMC10540216, “Activity Guided Azide-methyllysine Photo-trapping for Substrate Profiling of Lysine Demethylases” (Journal of the American Chemical Society, 2023)

B1: HNRPM_HUMAN (protein, UniProt P52272 2-730, looked up)
Heterogeneous nuclear …: AAGVEAAAEVAATEIKMEEESGAPGVPSGNGAPGPKGEGERPAQNEKRKEKNIKRGGNRFEPYANPTKRYRAFITNIPFDVKWQSLKDLVKEKVGEVTYVELLMDAEGKSRGCAVVEFKMEESMKKAAEVLNKHSLSGRPLKVKEDPDGEHARRAMQKVMATTGGMGMGPGGPGMITIPPSILNNPNIPNEIIHALQAGRLGSTVFVANLDYKVGWKKLKEVFSMAGVVVRADILEDKDGKSRGIGTVTFEQSIEAVQAISMFNGQLLFDRPMHVKMDERALPKGDFFPPERPQQLPHGLGGIGMGLGPGGQPIDANHLNKGIGMGNIGPAGMGMEGIGFGINKMGGMEGPFGGGMENMGRFGSGMNMGRINEILSNALKRGEIIAKQGGGGGGGSVPGIERMGPGIDRLGGAGMERMGAGLGHGMDRVGSEIERMGLVMDRMGSVERMGSGIERMGPLGLDHMASSIERMGQTMERIGSGVERMGAGMGFGLERMAAPIDRVGQTIERMGSGVERMGPAIERMGLSMERMVPAGMGAGLERMGPVMDRMATGLERMGANNLERMGLERMGANSLERMGLERMGANSLERMGPAMGPALGAGIERMGLAMGGGGGASFDRAIEMERGNFGGSFAGSFGGAGGHAPGVARKACQIFVRNLPFDFTWKMLKDKFNECGHVLYADIKMENGKSKGCGVVKFESPEVAERACRMMNGMKLSGREIDVRIDRNA
B2: C1TM_HUMAN (protein, UniProt Q6UB35 32-978, looked up)
Monofunctional …: SSGGGGGGGGGREGLLGQRRPQDGQARSSCSPGGRTPAARDSIVREVIQNSKEVLSLLQEKNPAFKPVLAIIQAGDDNLMQEINQNLAEEAGLNITHICLPPDSSEAEIIDEILKINEDTRVHGLALQISENLFSNKVLNALKPEKDVDGVTDINLGKLVRGDAHECFVSPVAKAVIELLEKSGVNLDGKKILVVGAHGSLEAALQCLFQRKGSMTMSIQWKTRQLQSKLHEADIVVLGSPKPEEIPLTWIQPGTTVLNCSHDFLSGKVGCGSPRIHFGGLIEEDDVILLAAALRIQNMVSSGRRWLREQQHRRWRLHCLKLQPLSPVPSDIEISRGQTPKAVDVLAKEIGLLADEIEIYGKSKAKVRLSVLERLKDQADGKYVLVAGITPTPLGEGKSTVTIGLVQALTAHLNVNSFACLRQPSQGPTFGVKGGAAGGGYAQVIPMEEFNLHLTGDIHAITAANNLLAAAIDTRILHENTQTDKALYNRLVPLVNGVREFSEIQLARLKKLGINKTDPSTLTEEEVSKFARLDIDPSTITWQRVLDTNDRFLRKITIGQGNTEKGHYRQAQFDIAVASEIMAVLALTDSLADMKARLGRMVVASDKSGQPVTADDLGVTGALTVLMKDAIKPNLMQTLEGTPVFVHAGPFANIAHGNSSVLADKIALKLVGEEGFVVTEAGFGADIGMEKFFNIKCRASGLVPNVVVLVATVRALKMHGGGPSVTAGVPLKKEYTEENIQLVADGCCNLQKQIQITQLFGVPVVVALNVFKTDTRAEIDLVCELAKRAGAFDAVPCYHWSVGGKGSVDLARAVREAASKRSRFQFLYDVQVPIVDKIRTIAQAVYGAKDIELSPEAQAKIDRYTQQGFGNLPICMAKTHLSLSHQPDKKGVPRDFILPISDVRASIGAGFIYPLVGTMSTMPGLPTRPCFYDIDLDTETEQVKGLF
B3: DDX5_HUMAN (protein, UniProt P17844 1-614, looked up)
Probable ATP-dependent RNA …: MSGYSSDRDRGRDRGFGAPRFGGSRAGPLSGKKFGNPGEKLVKKKWNLDELPKFEKNFYQEHPDLARRTAQEVETYRRSKEITVRGHNCPKPVLNFYEANFPANVMDVIARQNFTEPTAIQAQGWPVALSGLDMVGVAQTGSGKTLSYLLPAIVHINHQPFLERGDGPICLVLAPTRELAQQVQQVAAEYCRACRLKSTCIYGGAPKGPQIRDLERGVEICIATPGRLIDFLECGKTNLRRTTYLVLDEADRMLDMGFEPQIRKIVDQIRPDRQTLMWSATWPKEVRQLAEDFLKDYIHINIGALELSANHNILQIVDVCHDVEKDEKLIRLMEEIMSEKENKTIVFVETKRRCDELTRKMRRDGWPAMGIHGDKSQQERDWVLNEFKHGKAPILIATDVASRGLDVEDVKFVINYDYPNSSEDYIHRIGRTARSTKTGTAYTFFTPNNIKQVSDLISVLREANQAINPKLLQLVEDRGSGRSRGRGGMKDDRRDRYSAGKRGGFNTFRDRENYDRGYSSLLKRDFGAKTQNGVYSAANYTNGSFGSNFVSAGIQTSFRTGNPTGTYQNGYDSTQQYGSNVPNMHNGMNQQAYAYPATAAAPMIGYPMPTGYSQ
B4: P5CS_HUMAN (protein, UniProt P54886 1-795, looked up)
Delta-1-pyrroline-5-carboxylat …: MLSQVYRCGFQPFNQHLLPWVKCTTVFRSHCIQPSVIRHVRSWSNIPFITVPLSRTHGKSFAHRSELKHAKRIVVKLGSAVVTRGDECGLALGRLASIVEQVSVLQNQGREMMLVTSGAVAFGKQRLRHEILLSQSVRQALHSGQNQLKEMAIPVLEARACAAAGQSGLMALYEAMFTQYSICAAQILVTNLDFHDEQKRRNLNGTLHELLRMNIVPIVNTNDAVVPPAEPNSDLQGVNVISVKDNDSLAARLAVEMKTDLLIVLSDVEGLFDSPPGSDDAKLIDIFYPGDQQSVTFGTKSRVGMGGMEAKVKAALWALQGGTSVVIANGTHPKVSGHVITDIVEGKKVGTFFSEVKPAGPTVEQQGEMARSGGRMLATLEPEQRAEIIHHLADLLTDQRDEILLANKKDLEEAEGRLAAPLLKRLSLSTSKLNSLAIGLRQIAASSQDSVGRVLRRTRIAKNLELEQVTVPIGVLLVIFESRPDCLPQVAALAIASGNGLLLKGGKEAAHSNRILHLLTQEALSIHGVKEAVQLVNTREEVEDLCRLDKMIDLIIPRGSSQLVRDIQKAAKGIPVMGHSEGICHMYVDSEASVDKVTRLVRDSKCEYPAACNALETLLIHRDLLRTPLFDQIIDMLRVEQVKIHAGPKFASYLTFSPSEVKSLRTEYGDLELCIEVVDNVQDAIDHIHKYGSSHTDVIVTEDENTAEFFLQHVDSACVFWNASTRFSDGYRFGLGAEVGISTSRIHARGPVGLEGLLTTKWLLRGKDHVVSDFSEHGSLKYLHENLPIPQRNTN
B5: MCCA_HUMAN (protein, UniProt Q96RQ3 42-725, looked up)
Methylcrotonoyl-CoA …: TTATGRNITKVLIANRGEIACRVMRTAKKLGVQTVAVYSEADRNSMHVDMADEAYSIGPAPSQQSYLSMEKIIQVAKTSAAQAIHPGCGFLSENMEFAELCKQEGIIFIGPPPSAIRDMGIKSTSKSIMAAAGVPVVEGYHGEDQSDQCLKEHARRIGYPVMIKAVRGGGGKGMRIVRSEQEFQEQLESARREAKKSFNDDAMLIEKFVDTPRHVEVQVFGDHHGNAVYLFERDCSVQRRHQKIIEEAPAPGIKSEVRKKLGEAAVRAAKAVNYVGAGTVEFIMDSKHNFCFMEMNTRLQVEHPVTEMITGTDLVEWQLRIAAGEKIPLSQEEITLQGHAFEARIYAEDPSNNFMPVAGPLVHLSTPRADPSTRIETGVRQGDEVSVHYDPMIAKLVVWAADRQAALTKLRYSLRQYNIVGLHTNIDFLLNLSGHPEFEAGNVHTDFIPQHHKQLLLSRKAAAKESLCQAALGLILKEKAMTDTFTLQAHDQFSPFSSSSGRRLNISYTRNMTLKDGKNNVAIAVTYNHDGSYSMQIEDKTFQVLGNLYSEGDCTYLKCSVNGVASKAKLIILENTIYLFSKEGSIEIDIPVPKYLSSVSSQETQGGPLAPMTGTIEKVFVKAGDKVKAGDSLMVMIAMKMEHTIKSPKDGTVKKVFYREGAQANRHTPLVEFEEEESDKRESE
B6: NU160_HUMAN (protein, UniProt Q12769 1-1436, looked up)
Nuclear pore complex protein …: MLHLSAAPPAPPPEVTATARPCLCSVGRRGDGGKMAAAGALERSFVELSGAERERPRHFREFTVCSIGTANAVAGAVKYSESAGGFYYVESGKLFSVTRNRFIHWKTSGDTLELMEESLDINLLNNAIRLKFQNCSVLPGGVYVSETQNRVIILMLTNQTVHRLLLPHPSRMYRSELVVDSQMQSIFTDIGKVDFTDPCNYQLIPAVPGISPNSTASTAWLSSDGEALFALPCASGGIFVLKLPPYDIPGMVSVVELKQSSVMQRLLTGWMPTAIRGDQSPSDRPLSLAVHCVEHDAFIFALCQDHKLRMWSYKEQMCLMVADMLEYVPVKKDLRLTAGTGHKLRLAYSPTMGLYLGIYMHAPKRGQFCIFQLVSTESNRYSLDHISSLFTSQETLIDFALTSTDIWALWHDAENQTVVKYINFEHNVAGQWNPVFMQPLPEEEIVIRDDQDPREMYLQSLFTPGQFTNEALCKALQIFCRGTERNLDLSWSELKKEVTLAVENELQGSVTEYEFSQEEFRNLQQEFWCKFYACCLQYQEALSHPLALHLNPHTNMVCLLKKGYLSFLIPSSLVDHLYLLPYENLLTEDETTISDDVDIARDVICLIKCLRLIEESVTVDMSVIMEMSCYNLQSPEKAAEQILEDMITIDVENVMEDICSKLQEIRNPIHAIGLLIREMDYETEVEMEKGFNPAQPLNIRMNLTQLYGSNTAGYIVCRGVHKIASTRFLICRDLLILQQLLMRLGDAVIWGTGQLFQAQQDLLHRTAPLLLSYYLIKWGSECLATDVPLDTLESNLQHLSVLELTDSGALMANRFVSSPQTIVELFFQEVARKHIISHLFSQPKAPLSQTGLNWPEMITAITSYLLQLLWPSNPGCLFLECLMGNCQYVQLQDYIQLLHPWCQVNVGSCRFMLGRCYLVTGEGQKALECFCQAASEVGKEEFLDRLIRSEDGEIVSTPRLQYYDKVLRLLDVIGLPELVIQLATSAITEAGDDWKSQATLRTCIFKHHLDLGHNSQAYEALTQIPDSSRQLDCLRQLVVVLCERSQLQDLVEFPYVNLHNEVVGIIESRARAVDLMTHNYYELLYAFHIYRHNYRKAGTVMFEYGMRLGREVRTLRGLEKQGNCYLAALNCLRLIRPEYAWIVQPVSGAVYDRPGASPKRNHDGECTAAPTNRQIEILELEDLEKECSLARIRLTLAQHDPSAVAVAGSSSAEEMVTLLVQAGLFDTAISLCQTFKLPLTPVFEGLAFKCIKLQFGGEAAQAEAWAWLAANQLSSVITTKESSATDEAWRLLSTYLERYKVQNNLYHHCVINKLLSHGVPLPNWLINSYKKVDAAELLRLYLNYDLLEEAVDLVSEYVDAVLGKGHQYFGIEFPLSATAPMVWLPYSSIDQLLQALGENSANSHNIALSQKILDKLEDYQQKVDKATRDLLYRRTL
B7: CAPR1_HUMAN (protein, UniProt Q14444 2-709, looked up)
Caprin-1: PSATSHSGSGSKSSGPPPPSGSSGSEAAAGAGAAAPASQHPATGTGAVQTEAMKQILGVIDKKLRNLEKKKGKLDDYQERMNKGERLNQDQLDAVSKYQEVTNNLEFAKELQRSFMALSQDIQKTIKKTARREQLMREEAEQKRLKTVLELQYVLDKLGDDEVRTDLKQGLNGVPILSEEELSLLDEFYKLVDPERDMSLRLNEQYEHASIHLWDLLEGKEKPVCGTTYKVLKEIVERVFQSNYFDSTHNHQNGLCEEEEAASAPAVEDQVPEAEPEPAEEYTEQSEVESTEYVNRQFMAETQFTSGEKEQVDEWTVETVEVVNSLQQQPQAASPSVPEPHSLTPVAQADPLVRRQRVQDLMAQMQGPYNFIQDSMLDFENQTLDPAIVSAQPMNPTQNMDMPQLVCPPVHSESRLAQPNQVPVQPEATQVPLVSSTSEGYTASQPLYQPSHATEQRPQKEPIDQIQATISLNTDQTTASSSLPAASQPQVFQAGTSKPLHSSGINVNAAPFQSMQTVFNMNAPVPPVNEPETLKQQNQYQASYNQSFSSQPHQVEQTELQQEQLQTVVGTYHGSPDQSHQVTGNHQQPPQQNTGFPRSNQPYYNSRGVSRGGSRGARGLMNGYRGPANGFRGGYDGYRPSFSNTPNSGYTQSQFSAPRDYSGYQRDGYQQNFKRGSGQSGPRGAPRGRGGPPRPNRGMPQMNTQQVN

tested on: KDM4A-I71AzF; assay: CASI: photo-crosslinking with HEK293T cell extracts, StrepTactin enrichment and LC-MS/MS proteomics; format: binding, human; conditions: sheet "Final results but with 0.01";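 also: lysates from HEK293T cells pretreated with a KDM4 inhibitor to raise proteome methylation, affinity-purified after ±UV, gel-resolved, trypsin-digested, with exclusive unique peptides per protein averaged per condition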

Molecule | Fold change (+UV/-UV)
B1 | 1
B2 | 1.091
B3 | 1.6
B4 | 2.143
B5 | 0
B6 | 0.5
B7 | 0.5
